Where two headings read alike, the source gives them in different places. Where a SMILES comes first, the peptide text is derived from it. Where no end group is shown, it is not given here. The star is where a group is joined. 2Furoyl = O=C(c1ccco1)*; Butyryl = CCCC(=O)*
What was measured:
[1] = target: T1, ENL YEATS domain (His-ENL) (Homo sapiens, UniProt Q03111); assay: Biolayer interferometry (BLI) binding to ENL YEATS; conditions: ratio KD,AF9 / KD,ENL
T1 construct: (aa 1−148) was cloned in pET19b; made in house; host or cells: E. coli BL21(DE3pLysS)
T1 sequence (Q03111 1-148): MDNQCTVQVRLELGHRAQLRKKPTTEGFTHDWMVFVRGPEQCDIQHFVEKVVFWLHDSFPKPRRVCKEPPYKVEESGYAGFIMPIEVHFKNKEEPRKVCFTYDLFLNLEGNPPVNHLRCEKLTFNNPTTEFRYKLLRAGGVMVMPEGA
Description: To test the inhibition potency of the two selected peptides for the ENL YEATS domain, ENL-S1 and ENL-S2 were chemically synthesized through solid-phase peptide synthesis (SPPS) and evaluated by an AlphaScreen assay. In this assay, a biotinylated H3K27cr peptide and a 6xHis-tagged ENL YEATS domain (His-ENL YEATS) were immobilized on PerkinElmer streptavidin donor and nickel-chelating (Ni-NTA) acceptor beads, respectively. The use of a His-ENL YEATS instead of the original AviSUMO-ENL YEATS construct in the assay prevents potential false positive results derived from ligands which bind to the SUMO protein but not to the ENL YEATS domain. […] We then assessed the binding affinity of two ligands for the ENL YEATS domain using biolayer interferometry (BLI). Briefly, His-ENL was immobilized onto Ni-NTA functionalized biosensors to measure the binding kinetics of target peptides at different concentrations. […] As a small peptide directly selected from a phage display library, this level of high potency was unexpected. […] However, shorter-than-10-mer linear peptides with nanomolar binding potency have rarely been directly selected from phage display libraries. One example was S2P03, a 7-mer peptide that has a KD value as 49 ± 9 nM to bind to SIRT2.[10] This peptide contained BuK and was identified also from a BuK-containing phage display library using the active site-directed ligand selection technique. Taken together, the two examples confirmed that utilizing phage display libraries incorporated with a ncAA serving as a ligand for a protein target for active site-directed ligand selection is a successful method for identifying ultrahigh potency ligands for epigenetic proteins including both enzymes and readers. For ENL-S1 and ENL-S2, their determined kon and koff values were 6.23 ± 0.07 × 10^4 M^–1 s^–1, […] and […], 5.54 ± 0.02 × 10^–3 s^–1, respectively. Compared to ENL-S2, ENL-S1 has faster binding to the ENL YEATS domain and slower release from it, indicating its potential long-term action on the ENL YEATS inhibition. […]
Biolayer Interferometry to Validate ENL Ligands:
His-ENL, His-AF9 (aa 1-149, EpiCypher), His-GAS41 (aa 15-160, EpiCypher), and YEATS2-His (aa 200-345, EpiCypher) were reconstituted in water and diluted into assay buffer (20mM Tris, 300 mM NaCl, pH 7.9) for immobilization onto Octet Ni-NTA biosensors (Sartorius). Lyophilized peptides were dissolved in DMF and diluted to designated concentrations in assay buffer. Biolayer interferometry assays were performed in 96 well plates (GreinerBio-One, polypropylene, flat-bottom) using an Octet Red96 System (Sartorius). Wells were filled with 200 μL of assay buffer, blocking buffer (assay buffer + 0.1% BSA), protein solution, peptide solution, regeneration solution, and reload solution. For immobilization, His-tagged proteins were immobilized onto Ni-NTA sensors at 20 for 600 s. Sensors were then dipped into blocking buffer for 180 s, assay […] buffer for 300 s, peptide solution for 300 s, and back to assay buffer for 300 s. If multiple samples were tested, Ni-NTA sensors can be reconditioned in regeneration (10 mM glycine, pH 1.7) solution followed by reload solution (10 mM NiCl2) for 30 and 60 s, respectively. Measurements were carried out at 30 °C. Data were analyzed within the ForteBio Data Analysis software. Data were processed by double subtracting ligand only and protein only reference wells and aligning the data to the beginning of the association. Then, global kinetic fit was performed for all sensogram curves with a 1:1 model. Steady state KD values were reported.
AlphaScreen Assay with Biotinylated-ENL-S1:
The AlphaScreen assay was carried out in 384-well plates. Manual assay setup was performed in a 40 uL reaction buffer (50 mM HEPES pH 7.4, 100 mM NaCl, 0.1% bovine serum albumin, and 0.05% CHAPS). 10 µL of varying concentrations of His-ENL YEATS (0-300 nM) and 10 µL of […]

[2] = target: T2, NanoLuc-ENL YEATS expressed in HEK293T cells (Homo sapiens, UniProt Q03111); assay: ENL-NanoBRET cellular target engagement assay with tracer SR-0813T; assay type: cell-based
T2 construct: The complementary DNA encoding ENL YEATS (aa 1-148) was cloned into pCDH-EF1-Nluc; expressed in transfected cells
T2 sequence (Q03111 1-148): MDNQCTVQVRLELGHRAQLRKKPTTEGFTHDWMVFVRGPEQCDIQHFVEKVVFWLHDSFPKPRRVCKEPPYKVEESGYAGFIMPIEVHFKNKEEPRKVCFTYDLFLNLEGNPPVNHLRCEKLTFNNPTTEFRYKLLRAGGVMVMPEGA
Description: For peptides developed for intracellular targets, a common concern is their cellular permeability to engage the targets. For the ENL YEATS domain that is a nuclear protein, its inhibitors will also need to translocate to the nucleus to exert their inhibition activities. […] We attached FITC to tENL-S1o to afford FITC-tENL-S1o that could be fluorescently imaged. […] Although results from this pilot study were very encouraging, the conjugated FITC could have assisted the cellular penetration process. A more accurate assay was needed for the use of unmodified peptides. In light of this, we proceeded to use a NanoBRET assay to evaluate whether our developed peptides could permeate into cells and engage the ENL YEATS domain in the cellular melieu.[46] The NanoBRET assay is an emerging cutting-edge technique that is robust and sensitive in assessing not just cellular permeability of a developed ligand but also the ligand engagement with its protein target in the cellular environment. A significant advantage of the NanoBRET assay over the fluorophore conjugation and other approaches is allowing intact ligands to be used. […] There are three components required to gauge the peptide inhibitory potency for ENL expressed in cells through NanoBRET assays: (1) an ENL YEATS-NanoLuc luciferase fusion protein, (2) a NanoLuc luciferase substrate, and (3) a fluorescent tracer that binds specifically and reversibly to the reader channel of ENL YEATS. […] The cellular potency of peptides can be determined through the decrease in BRET as test peptides engage the ENL YEATS domain and displace the tracer. […]
Meanwhile, we established a stable cell line for NanoLuc-ENL YEATS expression. The binding of SR-0813T to […] was also validated using a fluorescence polarization assay (Figure S16).
Using the developed ENL-NanoBRET assay, we then characterized the cellular potency of our developed peptidyl inhibitors. […] The apparent intracellular affinity of tENL-S1f was further evaluated by NanoBRET at various tracer concentrations (Figure 5D). […]
Fluorescence microscopy study with FITC-6AHX-tENL-S1o: […]

[3] = target: T3, 6xHis-tagged ENL YEATS domain (human, UniProt Q03111 1-148)
T3 chain: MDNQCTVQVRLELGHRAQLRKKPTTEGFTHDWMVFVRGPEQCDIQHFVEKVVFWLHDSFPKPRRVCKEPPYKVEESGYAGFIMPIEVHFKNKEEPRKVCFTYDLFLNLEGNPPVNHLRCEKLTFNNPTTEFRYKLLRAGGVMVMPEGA

[4] = target: T4, AF9 YEATS domain (human, UniProt P42568 1-138); assay: BLI; His-ENL immobilised on Ni-NTA biosensors, peptides in solution at different concentrations (set-up told for ENL YEATS; the other YEATS domains were analysed 'similarly')
T4 chain: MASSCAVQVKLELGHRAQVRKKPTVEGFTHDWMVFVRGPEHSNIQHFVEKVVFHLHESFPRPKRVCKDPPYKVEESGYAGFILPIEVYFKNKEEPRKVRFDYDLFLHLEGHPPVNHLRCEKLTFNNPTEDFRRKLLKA

[5] = target: T3, 6xHis-tagged ENL YEATS domain; assay: BLI
[6] = target: T4, AF9 YEATS domain; assay: BLI
[7] = target: T4, AF9 YEATS domain
[8] = target: T3, 6xHis-tagged ENL YEATS domain; assay: BLI; His-ENL immobilised on Ni-NTA biosensors, peptides in solution at different concentrations (set-up told for ENL YEATS; the other YEATS domains were analysed 'similarly')
[9] = target: T3, 6xHis-tagged ENL YEATS domain; assay: AlphaScreen or HTRF; competition: biotinylated H3K27cr peptide on streptavidin donor beads, His-ENL YEATS on nickel-chelating (Ni-NTA) acceptor beads; test peptide varied; n = 3
[10] = target: T4, AF9 YEATS domain; assay: AlphaScreen or HTRF; competition: AF9 YEATS and its corresponding acylated histone peptide; test peptide varied; n = 3

CC(=O)N[C@H](C(=O)N[C@@H](Cc1ccc(O)cc1)C(=O)N[C@@H](CS)C(=O)N[C@@H](Cc1ccc(O)cc1)C(=O)N[C@@H](CCCCNC(=O)c1ccco1)C(N)=O)C(C)C [tENL-S1f] (Ac-VYCYK(2Furoyl)-NH2)
Selectivity (ENL:AF9) from BLI KD values [1]: 12.0 fold | IC50 ([2]; 0.5 μM SR-0813T tracer, read-out: NanoBRET IC50): 4100 ± 1100 nM | IC50 ([2]; 1.0 μM SR-0813T tracer, read-out: NanoBRET IC50): 4200 ± 1100 nM | IC50 ([2]; 2.5 μM SR-0813T tracer, read-out: NanoBRET IC50, displacement of SR-0813T from NanoLuc-ENL): 6400 ± 1600 nM

Ac-VYCYK(2Furoyl) [tENL-S1f]
decrease in qPCR of the ENL target genes HOXA9, MEIS1, MYB and MYC in MOLM-13 cells (endogenous ENL) treated with tENL-S1f at 10 and 50 μM [3]: 30% | growth of MV4;11 cells (MLL-r leukemia line sensitive to ENL depletion; endogenous ENL) treated with tENL-S1f for 14 days [3]: 50% | fold selectivity for ENL YEATS over AF9 [4]: 12 fold | Kd [5]: 307 nM | Kd [6]: 3670 nM

YDVYCYK(Butyryl) [ENL-S1]
IC50 [7]: 250 nM | Kd [8]: 36.3 nM | kon [8]: 62300 M⁻¹ s⁻¹ | IC50 [9]: 63 nM | fold lower potency (IC50) toward AF9 YEATS than toward ENL YEATS [10]: 4 fold

Source: paper PMC11046469, “Leveraging a Phage-Encoded Noncanonical Amino Acid: A Novel Pathway to Potent and Selective Epigenetic Reader Protein Inhibitors” (ACS Central Science, 2024)
